The results in this text go back to patent US20050118183A1 (IMMUNOGEN, published 2005).

Test [1] has as its target CD33 (human) (UniProt P20138). The test can be described thus: direct binding on HL-60 whole cells; direct on cells.
In test [2] the target is CD33 (human) (UniProt P20138). Description: direct binding on HL-60 membranes; direct on membranes.
The target in test [3] is CD33 (human) (UniProt P20138). Description: competitive binding on HL-60 membranes; competitive on membranes.
Test [4] concerns the target T1, CD33 (human, UniProt P20138 18-364).
T1 construct: whole, on cells; Presented on U-937 cells, HL-60 whole cells, dried HL-60 plasma membranes, THP-1 cells and CD33-transfected 3T3 murine fibroblasts; also called CD33 antigen; human CD33
The test can be described thus: flow cytometry on HL-60 cells. The procedure:
HL-60 cells were incubated with various concentrations of either My9-6 antibody or My9-6-DM1. The cells were then washed and incubated with a secondary FITC-labeled anti-murine IgG antibody. Following an additional wash, cells were fixed with 2% formaldehyde and cell-associated fluorescence was quantified using a BD FACScan flow cytometer.

Sequence of CD33 (human) (P20138 18-364): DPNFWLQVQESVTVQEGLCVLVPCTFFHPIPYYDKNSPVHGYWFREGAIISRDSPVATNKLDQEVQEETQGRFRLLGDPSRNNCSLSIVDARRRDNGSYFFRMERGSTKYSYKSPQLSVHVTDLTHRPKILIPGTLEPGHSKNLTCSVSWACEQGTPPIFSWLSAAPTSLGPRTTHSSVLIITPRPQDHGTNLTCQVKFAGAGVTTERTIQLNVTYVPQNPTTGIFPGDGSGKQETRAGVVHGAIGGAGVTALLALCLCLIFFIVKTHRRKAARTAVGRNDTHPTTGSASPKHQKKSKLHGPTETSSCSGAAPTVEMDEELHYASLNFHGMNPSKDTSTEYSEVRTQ
T1 sequence (P20138 18-364): as above

Turning to murine My9-6 antibody, the Kd came to 1.1 nM in test [1], 0.0513 nM in test [2] and 0.174 nM in test [3].

B1: My9-6-DM1 immunoconjugate (antibody, IgG1, V domains shown)
VH: QVQLQQPGAEVVKPGASVKMSCKASGYTFTSYYIHWIKQTPGQGLEWVGVIYPGNDDISYNQKFKGKATLTADKSSTTAYMQLSSLTSEDSAVYYCAREVRLRYFDVWGAGTTVTVSS
VL: NIMLTQSPSSLAVSAGEKVTMSCKSSQSVFFSSSQKNYLAWYQQIPGQSPKLLIYWASTRESGVPDRFTGSGSGTDFTLTISSVQSEDLAIYYCHQYLSSRTFGGGTKLEIKR
modifications: DM1 (thiol-containing maytansinoid) linked by disulfide through SPP; 3-5 pyridyldithio groups introduced per molecule of antibody; residues and chain not stated
For B1, the binding result in test [4] is on record as “binds”.

Broadly, the Kd is a measure of binding affinity in units of concentration. Low values mean tighter binding, high ones weaker binding.
